The data set deals with T1, SsOGT wild type (Sulfolobus solfataricus) (UniProt Q97VW7).
T1 sequence: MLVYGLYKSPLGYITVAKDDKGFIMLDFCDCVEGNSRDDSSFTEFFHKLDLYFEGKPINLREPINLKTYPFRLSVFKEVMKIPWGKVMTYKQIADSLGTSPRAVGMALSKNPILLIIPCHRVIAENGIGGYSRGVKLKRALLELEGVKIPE
Put plainly: competition. The following applies: EMSA: 0-25 uM protein, 0.2 uM probe, 37 C 10 min, 10 ul, buffer as ref. 17, 8% native PAGE in 1X TBE pH 8.3, competition: BG-VG assay, 50 C under ref. ….

Where the note is “O6-methylguanine at position 26 of strand 1”, “GGCAGTAGGCCTAGCATGACAATCTGCATTGGTGATCACGG / CGCTCATCCACAATGCAGATTGTCATGCTAGGCCTACTGCC [ds-Fwdm26]” showed a Ki of 830 nM.

In the case of “GGACACTGTACGTTAAGGCGGATCGAATTAGGATTAA / GGTTAATCCTAATTCGATCGCCTTAACGTACAGTGT [ds-UPm]”, under “O6-methylguanine at position 21 of strand 1”, the Ki is 280 nM.

Broadly, the Ki is a dissociation constant, usually derived from enzyme kinetics or from competition with a known ligand. Read a low Ki as tighter binding.

Source of the values: paper PMC4605297.
